Assay [1] concerns the target Biotinylated avi-tagged human TβRI (human) (UniProt P36897). In words: SPR. Background: SPR reads the build-up and loss of mass on a sensor chip optically.
Assay [2] has as its target Human CD44 extracellular domain (human) (UniProt P16070). As to the kind of experiment: ITC.
Assay [3] concerns the target Mouse CD44 extracellular domain (mouse) (UniProt P15379). As to the kind of experiment: ITC. Background: In ITC the heat of successive injections is recorded.
Assay [4] concerns the target Biotinylated avi-tagged human TβRI (human) (UniProt P36897). In words: SPR. The source holds these as a separate data set.
In assay [5] the target is Biotinylated avi-tagged human TβRII (human) (UniProt P37173). In words: SPR.

Like-named read-outs stand apart in the source and are kept apart here.

One may read the Kd as the free concentration of one partner at which half of the binding sites on the other are occupied at equilibrium, for simple one-to-one binding. A high value points to weaker binding.

Sequence of UniProt P36897 (P36897 34-126): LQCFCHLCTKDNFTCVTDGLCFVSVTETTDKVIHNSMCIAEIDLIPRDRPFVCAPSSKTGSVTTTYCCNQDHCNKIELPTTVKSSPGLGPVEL
Sequence of UniProt P16070 (P16070 21-649): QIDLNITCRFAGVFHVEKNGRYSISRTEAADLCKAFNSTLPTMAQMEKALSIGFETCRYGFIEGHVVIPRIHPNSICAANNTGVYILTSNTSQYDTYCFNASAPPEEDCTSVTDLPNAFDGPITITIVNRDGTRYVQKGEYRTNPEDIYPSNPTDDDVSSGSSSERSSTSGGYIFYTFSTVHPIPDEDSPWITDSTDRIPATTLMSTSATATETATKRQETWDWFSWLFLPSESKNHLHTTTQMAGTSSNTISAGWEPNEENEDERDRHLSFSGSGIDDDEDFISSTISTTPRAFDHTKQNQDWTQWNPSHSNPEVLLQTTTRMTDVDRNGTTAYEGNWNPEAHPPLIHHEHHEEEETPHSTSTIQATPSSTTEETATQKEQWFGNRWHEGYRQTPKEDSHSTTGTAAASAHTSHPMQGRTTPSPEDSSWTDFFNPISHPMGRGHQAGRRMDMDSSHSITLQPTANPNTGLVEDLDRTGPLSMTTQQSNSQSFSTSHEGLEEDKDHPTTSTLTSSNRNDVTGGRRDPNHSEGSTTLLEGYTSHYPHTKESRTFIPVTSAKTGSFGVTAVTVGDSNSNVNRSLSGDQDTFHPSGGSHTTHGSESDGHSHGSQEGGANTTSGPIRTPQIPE
Sequence of UniProt P15379 (P15379 23-685): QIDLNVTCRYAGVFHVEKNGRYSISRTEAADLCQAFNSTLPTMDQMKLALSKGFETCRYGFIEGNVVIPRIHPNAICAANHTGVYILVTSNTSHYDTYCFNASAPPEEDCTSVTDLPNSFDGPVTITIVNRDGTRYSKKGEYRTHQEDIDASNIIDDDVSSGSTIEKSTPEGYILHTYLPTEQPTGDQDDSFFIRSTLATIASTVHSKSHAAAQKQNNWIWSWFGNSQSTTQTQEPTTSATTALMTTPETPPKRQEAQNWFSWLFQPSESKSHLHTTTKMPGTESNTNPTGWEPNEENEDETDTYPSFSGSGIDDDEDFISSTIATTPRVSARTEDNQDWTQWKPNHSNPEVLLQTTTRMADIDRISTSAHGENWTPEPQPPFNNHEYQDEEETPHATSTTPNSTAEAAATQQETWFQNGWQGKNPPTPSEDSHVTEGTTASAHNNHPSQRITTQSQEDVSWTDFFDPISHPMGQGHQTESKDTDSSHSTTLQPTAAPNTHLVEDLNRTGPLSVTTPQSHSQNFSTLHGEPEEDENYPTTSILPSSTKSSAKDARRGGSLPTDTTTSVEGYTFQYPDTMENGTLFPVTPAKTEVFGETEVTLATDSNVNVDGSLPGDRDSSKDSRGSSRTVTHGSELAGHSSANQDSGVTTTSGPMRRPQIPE
Sequence of UniProt P37173 (P37173 23-166): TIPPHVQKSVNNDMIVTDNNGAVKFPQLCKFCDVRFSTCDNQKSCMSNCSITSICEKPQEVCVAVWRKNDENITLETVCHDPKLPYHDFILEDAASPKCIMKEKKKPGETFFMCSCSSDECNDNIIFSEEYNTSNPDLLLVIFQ

For “TGM1 full-length recombinant protein (natural protein)”, the Kd in assay [1] was 70 nM.
For TGM1 D4-5 fragment (domain or fragment), the dissociation constant (Kd) stood at 140 nM in assay [2] and 62 nM in assay [3].
Take “TGM4 D4-5 recombinant protein (domain or fragment)”: the values for the Kd in assay [2] and in assay [3] were 56 nM and 20 nM, respectively.
As for “TGM4 full-length recombinant protein (natural protein)”, the Kd in assay [4] is 3 to 5 nM; in assay [1], 3.2 nM; in assay [5], 116 µM.
